Reference: the Immune Epitope Database (IEDB)

Key:
Assay in all cases: IEDB peptide-MHC binding, purified MHC/competitive/radioactivity; ≥ and ≤ were set here for values at or beyond the usual limits of such assays
Conditions in all cases: source organism: Bordetella pertussis
[1] = target: HLA-B*57:01
[2] = target: HLA-B*35:01
[3] = target: HLA-A*02:01
[4] = target: HLA-B*53:01
[5] = target: HLA-B*44:03

| Sequence | IC50 [1] [µM] | IC50 [4] [µM] | further results |
| --- | --- | --- | --- |
| YTLRYLASY | 0.00076 | – | IC50 [2]: 3.52 µM |
| LTWLAILAV | – | – | IC50 [3]: 4090 nM |
| SVAPNALAW | – | 0.983 | IC50 [2]: 56.3 µM |
| KAGKLSATG | 45.5 | – | – |
| RGFAQRQQL | 54.3 | – | – |
| EATEGDATL | – | 46.1 | IC50 [2]: 69.9 µM |
| CPSSLGNGV | – | 26.4 | – |
| LLHHILPIL | – | – | IC50 [3]: 1470 nM |
| QADRDFVWY | – | 27.2 | IC50 [5]: 37.7 µM |
| GVGLASTLW | 18.8 | 12.6 | – |
| LSSPSAITV | ≥ 70.4 | – | – |
| DAGHEHDTW | 32.9 | – | – |
| RAGLSPATW | – | 27.2 | – |
| TSPYDGKYW | ≥ 70.4 | – | – |
| KSYTLRYLA | 0.263 | – | – |
| YFEPGPTTD | – | 69.9 | – |
